Test results reported in publication PMC3726529 (Nature, 2013).

Assays:
[1] = target: T1, isolated TrkA (VpTrkA) (Vibrio parahaemolyticus, UniProt Q87KD2); test: co-crystal structure, […] Å; format: binding; settings: 10 mM ATPγS; GXGXXG motif in the N lobe of each RCK domain
T1 sequence (Q87KD2 1-458): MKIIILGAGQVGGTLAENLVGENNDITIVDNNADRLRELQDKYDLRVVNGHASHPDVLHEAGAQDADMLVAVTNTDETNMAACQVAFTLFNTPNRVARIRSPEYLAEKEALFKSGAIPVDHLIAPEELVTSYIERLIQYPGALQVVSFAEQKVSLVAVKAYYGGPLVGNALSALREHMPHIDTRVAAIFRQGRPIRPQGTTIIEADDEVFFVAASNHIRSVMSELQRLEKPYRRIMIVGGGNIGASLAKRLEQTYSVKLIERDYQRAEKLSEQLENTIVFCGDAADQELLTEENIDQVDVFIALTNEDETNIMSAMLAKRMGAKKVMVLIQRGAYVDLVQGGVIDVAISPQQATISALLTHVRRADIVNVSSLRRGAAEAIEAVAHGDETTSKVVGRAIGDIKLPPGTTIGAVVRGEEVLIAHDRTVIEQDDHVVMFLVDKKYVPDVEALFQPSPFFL

[2] = target: TrkA from Vibrio parahaemolyticus, co-expressed with TrkH (Vibrio parahaemolyticus); test: crystal structure
[3] = target: isolated TrkA from Vibrio parahaemolyticus (Vibrio parahaemolyticus)
[4] = target: the molecule itself; test: crystal structure

With `Nc1ncnc2c1ncn2[C@@H]1O[C@H](COP(=O)(O)OP(=O)(O)OP(O)(O)=S)[C@@H](O)[C@H]1O` [ATPγS, adenosine 5′-O-(3-thiotriphosphate)] as the molecule, how does the “co-crystal structure, 3.05 Å” value [1] read?
Its value is “Each protomer contains two large densities consistent with ATPγS molecules”.

How did the stoichiometry N [2] turn out when “TrkA from Vibrio parahaemolyticus, co-expressed with TrkH (natural protein)” was run?
The stoichiometry N was 4.

“isolated TrkA from Vibrio parahaemolyticus (natural protein)” was tested. Which stoichiometry N [3] did it give?
The stoichiometry N was 4.

B1: TrkH from Vibrio parahaemolyticus (natural protein)
chain: MQFRSIIRIVGLLLALFSVTMLAPALVALLYRDGAGVPFVTTFFVLLFCGAMCWFPNRRHKHELKSRDGFLIVVLFWTVLGSAGSLPFLIADNPNISVTDAFFESFSALTTTGATVIVGLDELPKAILFYRQFLQWFGGMGIIVLAVAILPVLGIGGMQLYRAEIPGPVKDTKMTPRIAETAKALWYIYLSLTIACAVAFWLAGMTPFDAISHSFSTIAIGGFSTHDASMGYFDSYAINLITVVFLLISACNFTLHFAAFASGGVHPKYYWKDPEFRAFIFIQVLLFLVCFLLLLKHHSYTSPYDAFDQALFQTVSISTTAGFTTTGFADWPLFLPVLLLFSSFIGGCAGSTGGGMKVIRILLLTLQGARELKRLVHPRAVYTIKVGGSALPQRVVDAVWGFFSAYALVFVVCMLGLIATGMDELSAFSAVAATLNNLGPGLGEVALHFGDVNDKAKWVLIVSMLFGRLEIFTLLILLTPTFWRS
How did the “stoichiometry N” value [4] turn out when B1 was run?
The value was 2.
